Values joined by “and” are separate entries in the source; they are usually repeats but may differ in a detail not shown here. Equal entries are not always repeated.
How the values were obtained:
[1] = biological target: secreted form of human neprilysin (shNEP), wild type (human) (UniProt P08473); assay: enzyme kinetics, competitive (alternate substrate) inhibition of Glut-Ala-Ala-Phe-MNA hydrolysis, Dixon plot; insulin B chain varied from 1 to 40 µM against hydrolysis of the fluorogenic substrate Glut-Ala-Ala-Phe-MNA by NEP or mutant; Ki from ID50 = Ki(1+[S]/Km); 37°C, 20 mM MES buffer, pH 6.5
[2] = biological target: secreted form of human neprilysin, mutant F563M (human); assay: as above
[3] = biological target: secreted form of human neprilysin, mutant F563L (human); assay: as above
[4] = biological target: secreted form of human neprilysin, mutant F563I (human); assay: as above
[5] = biological target: secreted form of human neprilysin, mutant F563V (human); assay: as above
insulin B chain [6] = assay: Rate of insulin B chain hydrolysis (HPLC); type: biochemical; details: 15 µM insulin B chain, 37°C, 20 mM MES buffer, pH 6.5; disappearance of substrate by HPLC; at least triplicate
Description: (§1) Cleavage of physiological peptides was measured via reverse phase high performance liquid chromatography (HPLC) following incubation of the purified NEP or its mutants with 15 µM insulin B chain (Sigma Aldrich), 24 µM Aß1–40 (Anaspec), or 64 µM leu-ENK (Sigma) in 100 µL of 20 mM MES, pH 6.5, at 37°C. Reactions were run in triplicate. HPLC was carried out in a Vydac C4 column using a linear gradient from 0.1% trifluoroacetic acid (TFA) in 95% water, 5% acetonitrile to 0.1% TFA in 50% acetonitrile/water at a flow rate of 1 mL/min. Peptides and hydrolysis products were detected at 214 nm and quantified by measuring peak areas. Peptides obtained from HPLC were analyzed on an Applied Biosystems 4800 MALDI TOF/TOF Proteomics Analyzer at the University of Kentucky Proteomics core. This facility is supported in part by grant P20RR020171 from the NIH/NCRR.
(§2) Statistical analysis comparing wild-type NEP and its mutants was performed with Prism 4 software using a two-tailed paired t-test with a 95% confidence interval.

leu-ENK [7] = assay: Dual substrate assay: leu-ENK hydrolysis in presence of insulin B chain; type: biochemical; details: 15 µM insulin B chain and 64 µM leu-ENK together, 37°C, 20 mM MES buffer, pH 6.5
Description: (§3) The rate of cleavage of a substrate mixture is determined by both the kcat for that substrate as well by the affinity for the substrate. […] This is expected, given that each peptide acts as a competitive inhibitor of the other. […] That is the ratio for leu-ENK/insulin B chain cleavage is 3 for NEP^S546E compared to 6 for wild-type NEP.
as §1

[8] = tested on: leu-ENK and insulin B chain; assay: Dual substrate assay: substrate preference leu-ENK versus insulin B chain; type: biochemical; details: ratio of rates, 15 µM insulin B chain and 64 µM leu-ENK together
Description: as §3, §1

leu-ENK [9] = assay: Rate of leu-ENK hydrolysis (HPLC); type: biochemical; details: 64 µM leu-ENK, 37°C, 20 mM MES buffer, pH 6.5; disappearance of substrate by HPLC; at least triplicate
Description: as §1, §2

Aß1–40 [10] = assay: Time course of product peak accumulation from Aß1–40; type: biochemical; details: 24 µM Aß1–40, 37°C, 20 mM MES, pH 6.5; 0-360 min, HPLC peak area, linear phase
Description: Similar to the analysis conducted with insulin B chain, the linear rate of product accumulation was determined for each peak and normalized to the amount of protein in the reaction, Table 7 . Unlike the hydrolysis of insulin B chain, the hydrolysis of Aß1–40, even at the earliest time points, produced products resulting from multiple cleavage events. Out of the 12 identified product peaks, only 3 could be produced by a single cleavage. Rates for all cleavages were calculated and are given in Figure 4, B–D , but only the three putative primary cleavage sites can be compared.
as §1

insulin B chain [11] = assay: Dual substrate assay: insulin B chain hydrolysis in presence of leu-ENK; type: biochemical; details: 15 µM insulin B chain and 64 µM leu-ENK together, 37°C, 20 mM MES buffer, pH 6.5
Description: as §3, §1

Aß1–40 [12] = assay: Rate of Aß1–40 hydrolysis (HPLC); type: biochemical; details: 24 µM Aß1–40, 37°C, 20 mM MES buffer, pH 6.5; disappearance of substrate by HPLC; at least triplicate
Description: as §1, §2

insulin B chain [13] = assay: Time course of product peak accumulation from insulin B chain; type: biochemical; details: 15 µM insulin B chain, 37°C, 20 mM MES, pH 6.5; 0-180 min, HPLC peak area 214 nm, linear phase
Source text: As a representative of the NEP^F563 and NEP^S546 mutants, we compared the cleavage profile of NEP^F563L and NEP^S546E to that of NEP using time course experiments, Figure 2 . By adjusting the amount of NEP mutant used, the rate of hydrolysis of insulin B chain by all NEP forms was virtually identical. […] Since rates were based on peak areas measured at 214 nm, which in turn is dependent on both the number of peptide bonds and the number of aromatic residues within a given peptide, only the observed rates of change for a particular peptide product can be compared between enzyme forms. A comparison of the rate of change of different peaks within the same enzyme form or between enzyme forms is not valid under our conditions of analysis.
as §1

Aß = details: transgenic mice; cited from earlier work
Source text: Because of its multiple targets, NEP has been the focus of numerous studies attempting to modulate its activity for therapeutic purposes. One such target is the use of NEP to reduce Aß peptide levels in Alzheimer's disease, since the oligomerization of Aß has been linked to the etiology of this disease. […] In yet another application inhibitors of NEP were developed to block its “enkephalinase” activity to increase the concentra ...

insulin B chain [14] = assay: Insulin B chain as alternate substrate (competitive) inhibitor of Glut-Ala-Ala-Phe-MNA hydrolysis (Dixon plot); type: biochemical; details: insulin B chain 1 to 40 µM as competitive inhibitor of Glut-Ala-Ala-Phe-MNA hydrolysis by the enzyme form, 37°C, 20 mM MES, pH 6.5, ID50 converted to Ki
Description: (§4) Kinetic constants for NEP and its mutants were obtained using the assay conditions noted above, but with Glut-Ala-Ala-Phe-MNA varied from 20 to 500 µM. Typically 12 data points were obtained. The data were fit to the Michaelis-Menten equation using Prism4 software. The Ki for insulin B chain was obtained by measuring the rate of Glut-Ala-Ala-Phe-MNA hydrolysis in the presence of varying concentrations of insulin B chain from 1 to 40 µM. Data were fit to a Dixon plot (1/rate versus [insulin B chain]) using Prism4 software and the ID50 obtained as the –x intercept, where ID50 corresponds to the concentration of insulin producing 50% inhibition. The actual Ki was obtained from the equation: ID50 = Ki (1+ [Glut-Ala-Ala-Phe-MNA]/KmGlut-Ala-Ala-Phe-MNA), [33].

[15] = Hydrolysis of synthetic substrate Glut-Ala-Ala-Phe-MNA by NEP and mutants (fluorogenic); type: biochemical; details: 37°C, 20 mM MES buffer, pH 6.5
Description: Reactions of 400 µl contained 100 µM Glut-Ala-Ala-Phe-MNA, 1 µg of aminopeptidase and 15 to 100 ng of NEP or mutant NEP depending on their activity in 20 mM MES buffer, pH 6.5. Activity was monitored with a Spectra Max Gemini XS plate reader using an excitation wavelength of 340 nm and an emission wavelength of 425 nm.
as §4

insulin B chain (from UniProt P01317 25-54) (peptide)
Ki [1]: 1900 nM
Ki [2]: 1200 nM
Ki [3]: 1500 nM
Ki [4]: 2500 nM
Ki [5]: 1000 nM

B1: NEP: secreted form of human NEP (shNEP) expressed as a C-terminal hexahistidine fusion protein (protein, UniProt P08473 52-750, looked up)
extracellular domain: YDDGICKSSDCIKSAARLIQNMDATTEPCTDFFKYACGGWLKRNVIPETSSRYGNFDILRDELEVVLKDVLQEPKTEDIVAVQKAKALYRSCINESAIDSRGGEPLLKLLPDIYGWPVATENWEQKYGASWTAEKAIAQLNSKYGKKVLINLFVGTDDKNSVNHVIHIDQPRLGLPSRDYYECTGIYKEACTAYVDFMISVARLIRQEERLPIDENQLALEMNKVMELEKEIANATAKPEDRNDPMLLYNKMTLAQIQNNFSLEINGKPFSWLNFTNEIMSTVNISITNEEDVVVYAPEYLTKLKPILTKYSARDLQNLMSWRFIMDLVSSLSRTYKESRNAFRKALYGTTSETATWRRCANYVNGNMENAVGRLYVEAAFAGESKHVVEDLIAQIREVFIQTLDDLTWMDAETKKRAEEKALAIKERIGYPDDIVSNDNKLNNEYLELNYKEDEYFENIIQNLKFSQSKQLKKLREKVDKDEWISGAAVVNAFYSSGRNQIVFPAGILQPPFFSAQQSNSLNYGGIGMVIGHEITHGFDDNGRNFNKDGDLVDWWTQQSASNFKEQSQCMVYQYGNFSWDLAGGQHLNGINTLGENIADNGGLGQAYRAYQNYIKKNGEEKLLPGLDLNHKQLFFLNFAQVWCGTYRPEYAVNSIKTDVHSPGNFRIIGTLQNSAEFSEAFHCRKNSYMNPEKKCRVW
modifications: extracellular domain C-terminal His6 tag
notes: secreted form of human NEP (shNEP) expressed as a C-terminal hexahistidine fusion protein
Rate of hydrolysis of Insulin B Chain (insulin B chain [6]): 0.86 ± 0.13 pmol/min/ng
leu-ENK hydrolysis rate, dual substrate assay (leu-ENK [7]): 1.16 ± 0.06 pmol/min/ng
leu-ENK hydrolysis, activity relative to the uninhibited value (leu-ENK [7]; numbers in parenthesis): 0.61
Ratio leu-ENK insulin B chain [8]: 6 and 5.8
Rate of hydrolysis of leu-ENK (leu-ENK [9]): 1.90 ± 0.23 pmol/min/ng
Accumulation rate of peak Aß 1–9 (single cleavage G^9-Y^10) (Aß1–40 [10]): 7 Δarea/min/ng
Accumulation rate of peak Aß 1–16 (single cleavage K^16-L^17) (Aß1–40 [10]): 22 Δarea/min/ng
Accumulation rate of peak Aß 1–17 (single cleavage L^17-V^18) (Aß1–40 [10]): 75 Δarea/min/ng
Accumulation rate of peak Aß 4–9 (dual cleavages A^3-F^4, G^9-Y^10) (Aß1–40 [10]): 10 Δarea/min/ng
Accumulation rate of peak Aß 4–16 (dual cleavages A^3-F^4, K^16-L^17) (Aß1–40 [10]): 7 Δarea/min/ng
Accumulation rate of peak Aß 4–17 (dual cleavages A^3-F^4, L^17-V^18) (Aß1–40 [10]): 9 Δarea/min/ng
Accumulation rate of peak Aß 10–16 (dual cleavages G^9-Y^10, K^16-L^17) (Aß1–40 [10]): 4 Δarea/min/ng
Accumulation rate of peak Aß 10–17 (dual cleavages G^9-Y^10, L^17-V^18) (Aß1–40 [10]): 18 Δarea/min/ng
Accumulation rate of peak Aß 12–17 (dual cleavages E^11-V^12, L^17-V^18) (Aß1–40 [10]): 3 Δarea/min/ng
Accumulation rate of peak Aß 20–28 (dual cleavages F^19-F^20, K^28-G^29) (Aß1–40 [10]): 11 Δarea/min/ng
Accumulation rate of peak Aß 20–29 (dual cleavages F^19-F^20, G^29-A^30) (Aß1–40 [10]): 16 Δarea/min/ng
Accumulation rate of peak Aß 20–30 (dual cleavages F^19-F^20, A^30-I^31) (Aß1–40 [10]): 34 Δarea/min/ng
Insulin B Chain hydrolysis rate, dual substrate assay (insulin B chain [11]): 0.20 ± 0.04 pmol/min/ng
Insulin B Chain hydrolysis, activity relative to the uninhibited value (insulin B chain [11]; numbers in parenthesis): 0.23
Rate of hydrolysis of Aß1–40 (Aß1–40 [12]): 198 ± 12 fmol/min/ng
Rate of accumulation of peak 1–5 (single cleavage H^5-L^6) (insulin B chain [13]): 59 Δarea/min/ng
Rate of accumulation of peak 1–10 (single cleavage H^10-L^11) (insulin B chain [13]): 163 Δarea/min/ng
Rate of accumulation of peak 1–11 (single cleavage L^11-V^12) (insulin B chain [13]): 88 Δarea/min/ng
Rate of accumulation of peak 1–14 (single cleavage A^14-L^15) (insulin B chain [13]): 167 Δarea/min/ng
Rate of accumulation of peak 1–16 (single cleavage Y^16-L^17) (insulin B chain [13]): 31 Δarea/min/ng
Rate of accumulation of peak 15–23 (two cleavages A^14-L^15, G^23-F^24) (insulin B chain [13]): 23 Δarea/min/ng
Rate of accumulation of peak 15–30 (single cleavage A^14-L^15) (insulin B chain [13]): 135 Δarea/min/ng
Rate of accumulation of peak 17–24 (two cleavages Y^16-L^17, F^24-F^25) (insulin B chain [13]): 33 Δarea/min/ng
Rate of accumulation of peak 17–30 (single cleavage Y^16-L^17) (insulin B chain [13]): 171 Δarea/min/ng
Rate of accumulation of peak 24–30 (single cleavage G^23-F^24) (insulin B chain [13]): 268 Δarea/min/ng
Effect of NEP expression on cognitive deficits typically attributed to AD (Aß): ameliorates cognitive deficits
Effect of NEP expression on level of Aß (Aß): decreases the level of Aß
Ki (insulin B chain [14]): 1900 ± 200 nM
Specific Activity (Glut-Ala-Ala-Phe-MNA cleavage) ([15]; 100 µM Glut-Ala-Ala-Phe-MNA, fluorescence ex 340 nm, em 425 nm): 45.9 ± 2.5 pmol/min/ng
Km ([15]; Glut-Ala-Ala-Phe-MNA 20 to 500 µM, Michaelis-Menten fit): 51 ± 11 µM

— paper PMC3285688, “Active Site Mutations Change the Cleavage Specificity of Neprilysin” (PLoS ONE, 2012)
